Results on 2 molecules are retold here after patent publication US20230002478A1 (TWIST BIOSCIENCE, published 2023).

The target in test [1] is T1, SARS-CoV-2 S1 (HV69-70del, N501Y, D614G) (SARS-CoV-2, UniProt P0DTC2 16-685).
T1 construct: domain: S1
The test is described as follows: SPR.

Test [2] addresses T2, SARS-CoV-2 S1 (HV69-70del, Y453F, D614G) (SARS-CoV-2, UniProt P0DTC2 16-685).
T2 construct: domain: S1
The test can be described thus: SPR. (In general: SPR reads the build-up and loss of mass on a sensor chip optically.)

B1: 6-3 (Fc fusion)
chain: EVQLVESGGGLVQPGGSLRLSCAASGFTFSPSWMGWFRQAPGKEREFVATINEYGGRNYADSVKGRFTISADNSKNTAYLQMNSLKPEDTAVYYCARVDRDFDYWGQGTLVTVSS
A word on the Kd: it is a measure of binding affinity in units of concentration. Low values mean higher affinity, high ones lower affinity. With B1, the Kd in test [1] is 9.3 nM; in test [2], 23 nM.

B2: 6-63 (Fc fusion)
chain: EVQLVESGGGLVQPGGSLRLSCAASGQTFNMGWFRQAPGKEREFVAAIGSGGSTSYADSVKGRFTISADNSKNTAYLQMNSLKPEDTAVYYCWRLGNDYFDYWGQGTLVTVSS
As to B2, the values for the Kd in test [1] and in test [2] were 63 nM and 96 nM, respectively.
